The values below come from a protein production outcome set (Wang et al. 2014).

This data set is described as follows: label from the status in PepcDB records.
Regarding “MWDSENIEELSLVIGIGLDKPDDENLELTQQILVPKIISAKEGSSSDPTQLSITKGKTVHQMMRTSALKHKPTFSQHLRLILLSKSVIADQIGMDAIINQFVRDNGTRRSSYVFITNGRTKDIFNMNDEGEPASNVIYDLTENNKVTIRTMEPVTLGEISEHLTSDDSFLIPHVGKENGKLAINGASIIKNKLWHRDLTPIEVQNISLFSGTVEGGVIDLKRDGHLFSYEVYSSNRKIKTAYKDGKFKFTVTRNIEGRLSEDWNPNEDSFKDSYIKSIEKTVEKRVHETVTSFITEKLQKEIKADVTGLGNEVRIHYPQKWKKISRKWDDDYFSNAEIDYRVNVIVRDFGTKGANKLEHHHHHH”, the protein production entry was “not failed”.
Next, “MELMIGRVVKSHGIRGEVAIEVTTEEPEIRFAQGEVLNGRQGGKEHSLTIASVRPHQNRLLVKFKEIADRTAADSLRGTRFFAAPLDDDVDDGFYDHELEGLAVIHGEEKIGEVSGVIHGPAQSLLEVTLESGKEVLIPFVHDIVPEVDLDAGTCVITPPEGLLELLEHHHHHH”: “not failed”; “MRISKMLVTELNIYPLKSARGIALKESAVSAEGLPGDRRAMLTDPSGHFITQRELPAIATVLARHEDGGMALSRERSGEIFARPSGQRMDVAVWKSIVSANIADDETNDTLSAWLGREVKLVFFDDAAKRIASLEWTGNETPVTFADGYQILVTTTASLAALNDNMRGNGEDAVGMERFRPNIVLETEEAWAEDRWAAIEIGGIRFDLVKPCARCIMTTQDQMTGSRDVPSPMKAMGRIRMSGDRRVPGPLFGWNVTPRGEGRLSVGDVARVVEERPEGWAIKRRLEHHHHHH”: “not failed”; “MSANVQEAANAAIEPASFVKVPMPEPPSSLQQLINDWQLIKHREGGYFKETDRSPYTMEVEKPVNGGSGNTEMVTRNQSTLIYYLLTPDSPIGKFHKNINRIIHILQRGKGQYVLVYPDGQVKSFKVGFDYKNGEVSQWVVPGGVFKASFLLPNEEFDNGFLISEVVVPGFDFEDHTFLKGEDELKHLVGPEKAAELAFLA”: “not failed”.
With “WRTIFNAEPECVMIVATDGTLLDINPAGVAAIEADSVGAVIGKRVYSLVVPECQQAFRQLNESVCQGKQGTLEFEIITCRGNRRWMATHAVPVRNEKDGNLVQLSI”, the protein production result is “failed”.
Next, “EGQPLTRLKHMEPRLMAELGGLCAKLDKALAHFDHPGLARTLQWDPQHAGALIDHLLPVLQDGGQRARIEHATRQANEHLMPLVDQLPSQAVHLDITDDNTVWARDAQRQWQLQGVIDFGDLLRTWRIADLSVTCAALLHHAEGDPLRILPAVQAYQALNPLTEAELRALWPLVLNRAAVLVLSSEQQLTVDPGNQYTRDNIAHEWEIFDTATAVPFALMEAAILQAAGLQPAAP”: “failed”; “MKLQTTIQHEPKDGSGFDRGLREFFEYRDTGVNEATGGMFGAHVIRAIPGKEAKPTWHTHTVGFQLFYVLRGWVEFEYEDIGAVMLEAGGSAFQPPGVRHRELRHSDDLEVLEIVSPAGFATSVVDLEEARKP”: “not failed”.
The same measure for “MQFLPILFVLLASGSFLSYTLSSYAIGNGTANIYHYVLNATSTGTEYNVSVFLNWSYSNLYEYVNKYDYSTFHKNFQVPDLYYIFYHSNPSTLAYILLFNNVTLTTYNLGGNQIPAIKFYNGDNYLTVSAQYGVMLQGFAKNYAGPSAGTLNVSISLNSYKNLPSFVSNANMYTLNVSFMPNPSALSYTLYLVSPEAKISGSNMYVSKEISIAYLSILSKGFTTIIIPSAYSIVRPIGEVIINQTNYYYFYLNGTLTYYGTYFTPKYYNSTTPFTIDTIGKYIVIFFPTGGNITVFLNNGNNPLYGVKVTGETGNKNTPLSLYLIIIGVVIVLVVAIIVLRFRKVF”: “failed”.
For the sequence “MPGFDYKFLEKPKRRLLCPLCGKPMREPVQVSTCGHRFCDTCLQEFLSEGVFKCPEDQLPLDYAKIYPDPELEVQVLGLPIRCIHSEEGCRWSGPLRHLQGHLNTCSFNVIPCPNRCPMKLSRRDLPAHLQHDCPKRRLKCEFCGCDFSGEAYESHEGMCPQESVYCENKCGARMMRRLLAQHATSECPKRTQPCTYCTKEFVFDTIQSHQYQCPRLPVACPNQCGVGTVAREDLPGHLKDSCNTALVLCPFKDSGCKHRCPKLAMARHVEESVKPHLAMMCALVSRQRQELQELRRELEELSVGSDGVLIWKIGSYGRRLQEAKAKPNLECFSPAFYTHKYGYKLQVSAFLNGNGSGEGTHLSLYIRVLPGAFDNLLEWPFARRVTFSLLDQSDPGLAKPQHVTETFHPDPNWKNFQKPGTWRGSLDESSLGFGYPKFISHQDIRKRNYVRDDAVFIRAAVELPRKILS”, the protein production result is on record as “not failed”.
As for “MTVLYKGSLKQNNDPFHVTLLSKEHIEQILFLQNVVVEGLEDKSRLQPLSQEEFQYILEGNGMMIGAFIKNELIAFRALLVPPIDDEHLGLDIGLPESELHRVIYQEISNVHPNCRGNGMQKILATVIMDELQKENGKYDYVCCTVAPFNIPSLKDKFSQGMEIAALKEKYGGSMRYVFVKELREDKEKDWTEIKSVPMNNAGGQQALLSEGYRGYEMEKVDEDFVVKFGR”, the protein production entry is “failed”.
The same measure for “MNKEMTLLPPPELVQYVGGDFKKVGKEFLKHFIQIGALKSNEKVLDVGCGVGRMAVPLMNYLNDDGAYYGFDLFKDGITWCQNNISTMRNNFHFEHVDIYNQFYNPEGKEDASQYRFPYEDGTFDFIFLTSVFTHLLPKELEHYVSEIVRVLKKDGRCFITFFLINPESSYYLNAGQSTLGFYHRIENCYVVNKDIPNFAVAYPETDICNLLNKYGLEIINKPHYGLWCGRHEYTSYQDIVLTKKSLEHHHHHH”: “failed”.
As to “MSQTTTYAGSAGTAKTEIETSTIRAISWRLIPFLVLAYFFSYLDRVNLGFAALTMNAELKFTPLIFSWGAGIFFIGYFIFEVPSNLALEKFGASRWIARIMVTWGIISALMAMVSGVTSFYVLRFLLGVAEAGFFPGIILYLTYWYPAEYRARFLAAFAIAVPVSTVIGAPVSGLLLGLDGVMGLKGWQWLFIIEGIPSVLLGIVTWFYLTDRPEKADWLSAEQKAWLKAKLDSEIAAKQAVKHLSLGEALSSPKVIALSLIYFGFVGALYGMQFWLPQIVKAFGLTNAQTGFVTAIPYLFGTVAMILWARHSDATRERVMHVGAPLLLTAVALGVSSYLTDPTLTMVVLTVAAIGVFCCFGVFWTLPTAWLSGTAAAGGIALINSIGNLAGFGGPYLIGWVKEATGQTSTGLLVLAVLPLLAGILVFVGGHDSKHEFAGQGR”, the protein production result is “failed”.
The same measure for “MEPKVTIHRYYSRQAKYEGAVEADLELCIKHCGGDVVRIELVNRLHGIQLQRKLRRLLLLMFLSIAYFVGTCGFDNRTISFLQPRILYPLITCASVAILLIRSTLNLVQAERLFYSWDMALQMETVRSFGRESVLCVQRGHIEDIVLNEVIEDLDVKYMLILRTKGSQFKKRPIIPLFNSQSPSIECLQHTYHVLHKYWLNSTKDRSEESYSKDKQSLVNS”: “failed”.
The same measure for “MSRKYLIRITELERLLSEQAEALRQKDQQLSLVEETEAFLRSALARAEEKIEEEEREIEHLRAQIEKLRRMLFGTRSEKLQREVEQAEAQLKQREQESDRYSGREDDPQVPRQLRQSRHRRPLPAHLPREIHRLEPEESCCPECGSELDYLGEVSAEQLELVSSALKVIRTVRVKKACTKCDCIVEAPAPSRPIERGIAGSGLLARVLTGKYCEHLPLYRQSEIFARQGIELSRALLSNWVDACCQLMTLLNDTLYRYVMNTRKVHTDDTPVKVLAPGRKKAKTGRIWTYVRDDRNAGSSEPPAVWFAYSPDRQGKHPVQHLRPFRGILQADAFSGYDRLFSAEREGGALTEVACWAHARRKIHDVYISSKSATAEEALKRISELYAIEDEIRGLPESERLAVRQQRSKVLLTSLHEWMVEKNGTLSKKSRLGEACSYVLNQWDALCYYSDDGLAEADNNAAERALRAVCLGKKNFMFFGSDHGGERGALLYGLIGTCRLNGIDPEAYLRHILSVLPEWPSNRVDELLPWNVVLTNK”: “failed”; for “MPKKLGPKSQRQRGAVAPLTQVQQAACSPTYKQAKRNARSYQGRRRRRRCSQNTTSRVPSQLQAVDSSSASCRTYKNSEELRSRIVSGIITPIHEQWEKANVSSPHREFPPATAREVDPLRIPPHHPHTSRQPPWCDPLGPFVVGGEDLDPFGPRRGGMIVDPLRSGFPRALIDPSSGLPNRLPPGAVPPGARFDPFGPIGTSPPGPNPDHLPPPGYDDMYL”: “failed”; for “MITKVTARNNKITPVELLNQKFGNKINLGNFADAVFTDAAFKNVAGIANLPMKAPVMQVLMENCIVSKYLKQFVPDRSVCFVEEGQKFYIVLEDGQKIEVPEDVNKALKATVSDVKHWAGYLTEDGEHVIDLLKPAPGPHFYVNLLIGNRLGFKRTLQTTPKSVVDRFGRGSFRSHAATQVLATRFDMRQEENGFPANRQFYLYEDGKQIFYSALIDDNIVEATCKHSCNRTVIKYKTACNLEITRTIFLVPHKKGFPLATELQRIEIKNASDKARNLSITYTGMFGTGAVHAIFEDVTYTNVIMQSAALYNDKGEFIGITPDYYPEEFKQDTRFVTMIVRNGDEKSFPQSFCTDYNDFVGTGTLEHPAGGCNLNNKLNRKGPGFFALGAPFTVEPGKTVIIDTFTGLSSSKDNENYSDAVMLRELDNLLRYFEKSESVEETLNEIINFHENYGKYFQFNTGNKLFDSGFNRNLAFQVLYQTFMSRSFGQTQKGYREIGFREIQDLFASMYYFINIGYQDFVKELLFEWTANVYKMGYANHNFYWVGKQPGLYSDDSLWLLQAYYRYIIYTKDTSVLNEEVPVADGNNEKRAVRETLKAIIQYSACISVGDHGLPLLDLADWNDCLKIASNSIDGATKEKLYYEQLKKTNGKYGDRFMSDYSESVMNAFLLKLAIDHLAEIATLDNDTQLAQQMSELSKEVTDRIQKHAWKENFFARVLINRYKDGSYTYLGAKGDKLSADPNIDGVYFLNSFAWSVLSDVATDEQIAIMVDVIKKHLLTPYGLRLVTPADLNKIANDTATGHYFFGDRENGAVFKHASMMAVAALIKAAKKVKDNELAKEMARIAYFMIDLVLPYKNLENPFQVAGNPRICTQYINTDTGENIGPLLSGTATWLNLNLISLAGIEYTRDGISFNPILREEETQLNFTLKAPKCSYKFSITKPVGFARMESSEYELFVDGQKIDNTVIPMYTDEKEHIVTLKFK”: “not failed”.
The same measure for “MTSHTLTQGGRTTATIALLLAMLLWSSSFIAMKIALTGFDPMVMIFGRMAIASVIFIAVWRRNFSGVRYRAGDWKLLGFMTMCEPCLYFVFEAYALEYTSASQAGMIVAMMPLSVAVAARFVLKEHMARSAWAGFCLAIAGVVWLSLGGQVTENAPNPMLGNALEVCAMLTATGYVISAKRLSSTYPPLFITAVQSLAGFVFFLPVLALPGVTLPTSLPLTPTLAVLYLGVCITLGAYGLYNYGVSRLPAGQAASYINLIPVLTLIMGRVVLGDELSPSQYLASLLVLAGVVLSQRRAAA”: “failed”.
“GERCEPIELLSINLPEESSSRIIDIVTRRKGEMVMMENKNDRVFMEFHIPSRGIIGLNNAVLTASAGEAVIAHRFLEFQPWKGEIERRSNGSIIALESGTAYAYALNNLQSRGRFFISPQEEVYAG”: the protein production result is recorded as “failed”.
Regarding “MPPVPGVPFRNVDNDSPTSVELEDWVDAQHPTDEEEEEASSASSTLYLVFSPSSFSTSSSLILGGPEEEEVPSGVIPNLTESIPSSPPQGPPQGPSQSPLSSCCSSFSWSSFSEESSSQKGEDTGTCQGLPDSESSFTYTLDEKVAELVEFLLLKYEAEEPVTEAEMLMIVIKYKDYFPVILKRAREFMELLFGLALIEVGPDHFCVFANTVGLTDEGSDDEGMPENSLLIIILSVIFIKGNCASEEVIWEVLNAVGVYAGREHFVYGEPRELLTKVWVQGHYLEYREVPHSSPPYYEFLWGPRAHSESIKKKVLEFLAKLNNTVPSSFPSWYKDALKDVEERVQATIDTADDATVMASESLSVMSSNVSFSE”, the protein production result was “failed”.
For “RTAVMIMNGNQLVGFFCLHVGQGPLSYGETEVNTILLRALSVDDRFKHQRVASDALAELPRYLASHYPMIQTILLAVNHANHVAQHLY”, the protein production entry was “failed”.
